# Values quoted from earlier work in publication PMC5726918.
# Molecular target: Asp3 (position 3, ---AADAA---)
# Test: potentiometry
# Details: free peptide in solution
protein,measurement,value
"AADAA [Alanine-based pentapeptide AADAA (terminally blocked, uncharged) (synthetic)]",pKa,3.9
